B1: human ΔNp63β with C-terminal FlAsH tag, labelled with FlAsH (natural protein, UniProt Q9H3D4-4 1-461, looked up)
chain: MLYLENNAQTQFSEPQYTNLGLLNSMDQQIQNGSSSTSPYNTDHAQNSVTAPSPYAQPSSTFDALSPSPAIPSNTDYPGPHSFDVSFQQSSTAKSATWTYSTELKKLYCQIAKTCPIQIKVMTPPPQGAVIRAMPVYKKAEHVTEVVKRCPNHELSREFNEGQIAPPSHLIRVEGNSHAQYVEDPITGRQSVLVPYEPPQVGTEFTTVLYNFMCNSSCVGGMNRRPILIIVTLETRDGQVLGRRCFEARICACPGRDRKADEDSIRKQQVSDSTKNGDGTKRPFRQNTHGIQMTSIKKRRSPDDELLYLPVRGRETYEMLLKIKESLELMQYLPQHTIETYRQQQQQQHQHLLQKQTSIQSPSSYGNSSPPLNKMNSMNKLPSVSQLINPQQRNALTPTTIPDGMGANIPMMGTHMPMAGDMNGLSPTQALPPPLSMPSTSHCTPPPPYPTDCSIVRIWQV
modifications: FlAsH (from FlAsH-EDT2, Lumio Green) on the C-terminal CCPGCC tetra-cysteine tag
notes: also called human p63; not shown: FlAsH tag CCPGCC, C-terminal, kept; 6xHis, N-terminal, cleaved; lipoyl domain, N-terminal, cleaved
B2: Drp53 (zebrafish p53) with C-terminal FlAsH tag, labelled with FlAsH (natural protein, zebrafish (Danio rerio), UniProt P79734 1-373, looked up)
chain: MAQNDSQEFAELWEKNLIIQPPGGGSCWDIINDEEYLPGSFDPNFFENVLEEQPQPSTLPPTSTVPETSDYPGDHGFRLRFPQSGTAKSVTCTYSPDLNKLFCQLAKTCPVQMVVDVAPPQGSVVRATAIYKKSEHVAEVVRRCPHHERTPDGDNLAPAGHLIRVEGNQRANYREDNITLRHSVFVPYEAPQLGAEWTTVLLNYMCNSSCMGGMNRRPILTIITLETQEGQLLGRRSFEVRVCACPGRDRKTEESNFKKDQETKTMAKTTTGTKRSLVKESSSATLRPEGSKKAKGSSSDEEIFTLQVRGRERYEILKKLNDSLELSDVVPASDAEKYRQKFMTKNKKENRESSEPKQGKKLMVKDEGRSDSD
modifications: FlAsH (from FlAsH-EDT2, Lumio Green) on the C-terminal CCPGCC tetra-cysteine tag
notes: not shown: FlAsH tag CCPGCC, C-terminal, kept; 6xHis, N-terminal, cleaved; lipoyl domain, N-terminal, cleaved
B3: Xlp53 (Xenopus laevis p53) with C-terminal FlAsH tag, labelled with FlAsH (natural protein, frog (Xenopus laevis), UniProt P07193 1-363, looked up)
chain: MEPSSETGMDPPLSQETFEDLWSLLPDPLQTVTCRLDNLSEFPDYPLAADMTVLQEGLMGNAVPTVTSCAVPSTDDYAGKYGLQLDFQQNGTAKSVTCTYSPELNKLFCQLAKTCPLLVRVESPPPRGSILRATAVYKKSEHVAEVVKRCPHHERSVEPGEDAAPPSHLMRVEGNLQAYYMEDVNSGRHSVCVPYEGPQVGTECTTVLYNYMCNSSCMGGMNRRPILTIITLETPQGLLLGRRCFEVRVCACPGRDRRTEEDNYTKKRGLKPSGKRELAHPPSSEPPLPKKRLVVVDDDEEIFTLRIKGRSRYEMIKKLNDALELQESLDQQKVTIKCRKCRDEIKPKKGKKLLVKDEQPDSE
modifications: FlAsH (from FlAsH-EDT2, Lumio Green) on the C-terminal CCPGCC tetra-cysteine tag
notes: also called frog p53; not shown: FlAsH tag CCPGCC, C-terminal, kept; 6xHis, N-terminal, cleaved; lipoyl domain, N-terminal, cleaved
B4: human ΔNp73β with C-terminal FlAsH tag, labelled with FlAsH (natural protein, UniProt O15350-9 1-450, looked up)
chain: MLYVGDPARHLATAQFNLLSSTMDQMSSRAASASPYTPEHAASVPTHSPYAQPSSTFDTMSPAPVIPSNTDYPGPHHFEVTFQQSSTAKSATWTYSPLLKKLYCQIAKTCPIQIKVSTPPPPGTAIRAMPVYKKAEHVTDVVKRCPNHELGRDFNEGQSAPASHLIRVEGNNLSQYVDDPVTGRQSVVVPYEPPQVGTEFTTILYNFMCNSSCVGGMNRRPILIIITLEMRDGQVLGRRSFEGRICACPGRDRKADEDHYREQQALNESSAKNGAASKRAFKQSPPAVPALGAGVKKRRHGDEDTYYLQVRGRENFEILMKLKESLELMELVPQPLVDSYRQQQQLLQRPSHLQPPSYGPVLSPMNKVHGGMNKLPSVNQLVGQPPPHSSAATPNLGPVGPGMLNNHGHAVPANGEMSSSHSAQSMVSGSHCTPPPPYHADPSLVRTWGP
modifications: FlAsH (from FlAsH-EDT2, Lumio Green) on the C-terminal CCPGCC tetra-cysteine tag
notes: also called human p73; not shown: FlAsH tag CCPGCC, C-terminal, kept; 6xHis, N-terminal, cleaved; lipoyl domain, N-terminal, cleaved
B5: Dmp53 (Drosophila melanogaster p53) with C-terminal FlAsH tag, labelled with FlAsH (natural protein, fruit fly (Drosophila melanogaster), UniProt Q9N6D8 1-385, looked up)
chain: MYISQPMSWHKESTDSEDDSTEVDIKEDIPKTVEVSGSELTTEPMAFLQGLNSGNLMQFSQQSVLREMMLQDIQIQANTLPKLENHNIGGYCFSMVLDEPPKSLWMYSIPLNKLYIRMNKAFNVDVQFKSKMPIQPLNLRVFLCFSNDVSAPVVRCQNHLSVEPLTANNAKMRESLLRSENPNSVYCGNAQGKGISERFSVVVPLNMSRSVTRSGLTRQTLAFKFVCQNSCIGRKETSLVFCLEKACGDIVGQHVIHVKICTCPKRDRIQDERQLNSKKRKSVPEAAEEDEPSKVRRCIAIKTEDTESNDSRDCDDSAAEWNVSRTPDGDYRLAITCPNKEWLLQSIEGMIKEAAAEVLRNPNQENLRRHANKLLSLKKRAYELP
modifications: FlAsH (from FlAsH-EDT2, Lumio Green) on the C-terminal CCPGCC tetra-cysteine tag
notes: amplified from a cDNA library (Simon Bullock); also called fruit fly p53; not shown: FlAsH tag CCPGCC, C-terminal, kept; 6xHis, N-terminal, cleaved; lipoyl domain, N-terminal, cleaved
B6: Human p63 isoform ΔNp63β, with C-terminal FlAsH tag, FlAsH-labelled (natural protein, UniProt Q9H3D4-4 1-461, looked up)
chain: B1 chain
modifications: FlAsH (from FlAsH-EDT2, an arsenic derivative of fluorescein) on the C-terminal CCPGCC tetra-cysteine tag
notes: the whole isoform is surmised; also called ΔNp63β-FlAsH; not shown: 6xHis, N-terminal, cleaved; lipoyl domain, N-terminal, cleaved; FlAsH-tag CCPGCC, C-terminal, kept
B7: Human p73 isoform ΔNp73β, with C-terminal FlAsH tag, FlAsH-labelled (natural protein, UniProt O15350-9 1-450, looked up)
chain: B4 chain
modifications: FlAsH (from FlAsH-EDT2, an arsenic derivative of fluorescein) on the C-terminal CCPGCC tetra-cysteine tag
notes: the whole isoform is surmised; also called ΔNp73β-FlAsH; not shown: 6xHis, N-terminal, cleaved; lipoyl domain, N-terminal, cleaved; FlAsH-tag CCPGCC, C-terminal, kept
B8: Danio rerio p53, full length, with C-terminal FlAsH tag, FlAsH-labelled (natural protein, UniProt P79734 1-373, looked up)
chain: B2 chain
modifications: FlAsH (from FlAsH-EDT2, an arsenic derivative of fluorescein) on the C-terminal CCPGCC tetra-cysteine tag
notes: p53 of zebrafish (Danio rerio), full-length protein, from a Mammalian Gene Collection clone; also called Drp53; Drp53-FlAsH; not shown: 6xHis, N-terminal, cleaved; lipoyl domain, N-terminal, cleaved; FlAsH-tag CCPGCC, C-terminal, kept
B9: Xenopus laevis p53, full length, with C-terminal FlAsH tag, FlAsH-labelled (natural protein, UniProt P07193 1-363, looked up)
chain: B3 chain
modifications: FlAsH (from FlAsH-EDT2, an arsenic derivative of fluorescein) on the C-terminal CCPGCC tetra-cysteine tag
notes: p53 of frog (Xenopus laevis), full-length protein, from a Mammalian Gene Collection clone; also called Xlp53; Xlp53-FlAsH; not shown: 6xHis, N-terminal, cleaved; lipoyl domain, N-terminal, cleaved; FlAsH-tag CCPGCC, C-terminal, kept
B10: Drosophila melanogaster p53, full length, with C-terminal FlAsH tag, FlAsH-labelled (natural protein, UniProt Q9N6D8 1-385, looked up)
chain: B5 chain
modifications: FlAsH (from FlAsH-EDT2, an arsenic derivative of fluorescein) on the C-terminal CCPGCC tetra-cysteine tag
notes: p53 of Drosophila melanogaster, full-length protein, amplified from a cDNA library; also called Dmp53; Dmp53-FlAsH; not shown: 6xHis, N-terminal, cleaved; lipoyl domain, N-terminal, cleaved; FlAsH-tag CCPGCC, C-terminal, kept

Molecular target: the molecule itself
Test: AUC; sedimentation velocity with fluorescence detection, FlAsH-labelled protein at 5-500 nM; 150 mM NaCl, 25 mM phosphate pH 7.2, 10% glycerol, BSA 0.2 mg/mL, 1 mM beta-mercaptoethanol, 10°C; tetramer to dimers; Kd expressed in concentration of monomer

Row | Protein | fold weaker self-association (dimer-tetramer equilibrium) than Dmp53, Drp53 and ΔNp73β | stoichiometry N
1 | B1 | ~5 fold | 4
2 | B2 |  | 4
3 | B3 | ~10 fold | 4
4 | B4 |  | 4
5 | B5 |  | 4

Molecular target: the molecule itself
Test: AUC; sedimentation velocity with fluorescence detection, FlAsH-labelled protein at 5-500 nM (monomer); 150 mM NaCl, 25 mM phosphate pH 7.2, 10% glycerol, BSA 0.2 mg/mL, 1 mM β-mercaptoethanol, 10°C; dimer to monomers; Kd expressed in concentration of monomer

Row | Protein | Kd
6 | B6 | 9.3 nM
7 | B7 | 5.7 nM

Molecular target: the molecule itself
Test: AUC; sedimentation velocity with fluorescence detection, FlAsH-labelled protein at 5-500 nM (monomer); 150 mM NaCl, 25 mM phosphate pH 7.2, 10% glycerol, BSA 0.2 mg/mL, 1 mM β-mercaptoethanol, 10°C; tetramer to dimers; Kd expressed in concentration of monomer

Row | Protein | Kd
8 | B6 | 12.2 nM
9 | B8 | 3.6 nM
10 | B9 | 27.6 nM
11 | B7 | 2.4 nM
12 | B10 | 1.7 nM

Molecular target: the molecule itself
Test: AUC; sedimentation velocity with fluorescence detection, FlAsH-labelled protein at 5-500 nM (also at 60 k rpm); 150 mM NaCl, 25 mM phosphate pH 7.2, 10% glycerol, BSA 0.2 mg/mL, 1 mM beta-mercaptoethanol, 10°C; dimer to monomers; Kd expressed in concentration of monomer

Row | Protein | fold weaker primary dimer (monomer-dimer equilibrium) than human p53
13 | B1 | 9 fold
14 | B4 | 6 fold
